Publication PMC4419654, “LSD1 and HY5 antagonistically regulate red light induced-programmed cell death in Arabidopsis” (Frontiers in Plant Science, 2015)

Target: the molecule itself
Assay: immunoblot of plant extract made without DTT; total protein of RL-treated WT plants extracted without DTT; the legend calls it an immunoprecipitation analysis; dimer and monomer LSD1 detected

B1: lesion simulating disease 1 (LSD1) (natural protein, UniProt P94077 1-189, looked up)
chain: MKVADMQDQLVCHGCRNLLMYPRGASNVRCALCNTINMVPPPPPPHDMAHIICGGCRTMLMYTRGASSVRCSCCQTTNLVPAHSNQVAHAPSSQVAQINCGHCRTTLMYPYGASSVKCAVCQFVTNVNMSNGRVPLPTNRPNGTACPPSTSTSTPPSQTQTVVVENPMSVDESGKLVSNVVVGVTTDKK
notes: lesion simulating disease 1 (LSD1), C2C2 zinc finger protein with three zinc finger domains, Arabidopsis; detected with LSD1 antibody (Agrisera); source: endogenous, Arabidopsis WT plant total protein extract
With B1 the “stoichiometry N” value was 2.
